The DeepSol protein solubility set

Assay: soluble on expression in E. coli; label from the status in PepcDB or PDB records

Sequence | soluble on expression in E. coli
MSLTNQAYPMALVSQDSLDSYIRSVNGYPMLSADEERELAERLHYKGDIDAAKGLILSHLRFVVHVARGYSGYGLPMADLVQEGNIGLMKAVKRFNPEMGVRLVSFAVHWIKAEIHEYVLRNWRIVKIATTKAQRKLFFNLRKSKKRLGWFNNGEVETVARELGVEPAEVREMESRLAAQDAAFEMSAEDDENGMAYTAPVLYLEDKHSDLADNLEAENWEAHTTQRLSMALASLDERSQHIVRARWLDDDNKTTLQDLAEMYGVSAERIRQLEKNAMRKLKEAVGEEGHHHHHH | soluble
MATTTPERVMQETMDYHALNAMLNLYDKAGHIQFDKDQQAIDAFFATHVRPHSVTFASQHERLGTLVREGYYDDAVLARYDRAFVLRLFEHAHASGFRFQTFLGAWKFYTSYTLKTFDGKRYLEHFEDRVTMVALTLAQGDETLATQLTDEMLSGRFQPATPTFLNCGKQQRGELVSCFLLRIEDNMESIGRAVNSALQLSKRGGGVAFLLSNLREAGAPIKRIENQSSGVIPVMKMLEDAFSYANQLGARQGAGAVYLHAHHPDILRFLDTKRENADEKIRIKTLSLGVVIPDITFRLAKENAQMALFSPYDIQRRYGKPFGDIAISERYDELIADPHVRKTYINARDFFQTLAEIQFESGYPYIMFEDTVNRANPIAGRINMSNLCSEILQVNSASRYDDNLDYTHIGHDISCNLGSLNIAHVMDSPDIGRTVETAIRGLTAVSDMSHIRSVPSIAAGNAASHAIGLGQMNLHGYLAREGIAYGSPEALDFTNLYFYTITWHAVHTSMRLARERGKTFAGFAQSRYASGDYFTQYLQDDWQPKTAKVRALFARSGITLPTREMWLKLRDDVMRYGIYNQNLQAVPPTGSISYINHATSSIHPIVAKIEIRKEGKTGRVYYPAPFMTNENLDMYQDAYDIGPEKIIDTYAEATRHVDQGLSLTLFFPDTATTRDINKAQIYAWRKGIKSLYYIRLRQLALEGTEIEGCVSCAL | soluble
MTETIKCIGCGVEIQTEDKNEVGYAPASSLEKEQVICQRCFRLKHYNEIQDVSLTDDDFLRILNGIGKSDALVVKIVDIFDFNGSWLPGLHRFVGNNKVLLVGNKADLIPKSVKHDKVKHWMRYSAKQLGLKPEDVFLISAAKGQGIAELADAIEYYRGGKDVYVVGCTNVGKSTFINRMIKEFSDETENVITTSHFPGTTLDLIDIPLDEESSLYDTPGIINHHQMAHYVGKQSLKLITPTKEIKPMVFQLNEEQTLFFSGLARFDYVSGGRRAFTCHFSNRLTIHRTKLEKADELYKNHAGDLLSPPTPEELENMPELVKYEFNIREPKTDVVFSGLGWVTVNEPGAKIVAHVPKGVSVSLRKSLI | soluble
MGSDKIHHHHHHMLNSQSKLDQEVIEGIHRIRENGVLPFIATGRGHFELDEIMSLTGISGAVAMNGQYIVLDGETIYKEEIPTSSVEKLLEAASPHSEALSFYDSQGYWVSELTDLAKTAYAYTHMPMPQADARRYLSQEVNMLLVLTNQLSQVDYYKERVPELNFFMNSPSSIDVTNSTTNKGTGINHVKEVLNFTGQTFAFGDGRNDLDLFKAADHRTAMGNAVPELKELADFISTENTNHGIINAFNHWGIM | not soluble
MQTVIGTTNGRPGTTYYQRGRMHRHQPGNRQQKEKKAAAGRNRNDFLTGRILPVTPDYCMEIRAGEKINLTTRENFDFLYRSALRYSALVGLRLPFRPTGKSPRMNIVKLYRAMDTILPEHVNLEEENGRLYFCLYRFHEWPEYKLFWIPLEFTERLPEKLGKIALEFIRQLARHHGIPKSTDTSYHEMAHDYLEDYRLYDEEATAGEIRRKAALARLYEKGKAHRILKRMDNPKGFLADLEGEIRKYHTKKNNERALLELLTEGTAYISYGSPSIMQYSYDWAYEKAADFRPVGLDTQIMVTWSVKDAMNDEMESYFNSDYQESYVITPVTTFHLTPDTEKPFSMDDFPERFSHWLERFTKLITNNF | not soluble
MGSDKIHHHHHHMISSSTVHAFYFSAKYSSFSRAAEILETTQPNISGQIIKLEKDLDTILFIRKQGRVSLSKEGEKLYLVAEKIVNSYKEFDSVVEYFFEEEPIVIVTQPRLYTKYVAPYLTDDLINNNLFHIKTGELTAIKSWLDKEDADIVITEGLFDSHSRYINEGVIDVLKFSWAKKVNEQFDSPCPTLVHSKVWDHWHDLSSALNRNKEFKRKLIIDTPDFAERLIESGVGIGLLPNVMISNNANLEVCHGPTRNNVLGPICLYSKKYSQHKNLRSLVNMFKKESSDS | not soluble
MGSDKIHHHHHHMTIDTNFSKWFLQPSKESAQMYETVMQRALTLVVEHMKEAANPFSGADRHSIQQAVKDAAFISYSGEPIDGVIRAIQEGVMKHSLWISHPSAMAHLHCPPLLPSLVAEVVINALNQSMDSWDQSPSATYVETELLRFFTRSIGYSDLGDGVFTSGGTQSNYMGMLLARNKICESAFATNVQEEGLPVDARKLRILCSQEAHFSVQKSAAQLGLGANAVVQVATNERQQLCVNETRQTINELRLKGLIPFMIVATAGTTDFGSIDKLREIAELAREQELWLHVDAAYGGALLFSRQYGHLLNGLHLADSITIDFHKFYYQSISCGAFFVKDRHEFERIRFHADYLNPEEDKEADIINLVEKSVQTTKRFDALKLLVTFKWMGTEQFGQMIDYTIQLAKETGELLRRYGFDVLNDPELNAVVFRYVPECHRDDQSYVDQLNLTLQRHFYERGDLIMAKTKQRGHVYLKFTMLNPLNTIENMKTQIQKVKKAGIEFEKTQGAIRHEHVIHS | not soluble
MAEAAQAPQQQFAIQRIYLKDVSFEAPSSPVMFQKEWNPDVKLDLDTQSRELGQGVYEVVLRLTVTVKNAEETAFLCEVQQAGIFSAEQMEAGQLAHCLGAFCPNILFPYARETISSLVVKGTFPQLNLAPVNFDALFMNYLQQQAQEGATANA | not soluble
SLKTKTFKMQLQFLSEQNLEINNNNQLLNQEKITYLQKIEQLKCKLEYQERMIKDSEKIREESFASAKAALFDLGKDLSKQLIEIHKMENNTTRELAEKNIETASQKFNTELERLITMVGALNKDIEQSKGTVDLIKQSLLSPIGAGLLSEITLENILKSSGLRPNLDFIMQYSLTTSDSVKLRPDAIIFLPSGNLMVIDSKASKFLVDSQDNSVHLSKTMNYHLKTLTNKDYAENILTNLNKKTQNFNNVITLMFLPTEQAVEKVIAANPEFLQKAWGCNIFPVGPAGLMNMLSFAKFQITDNRRSENYKVIIEEVRKLLSSIGTIADYSKKIGYNLQNMVTNYDKFAASFNRNVMSRVKSIQKLGIDSGNKIIPATLERYQIVSAKSEIIEVDVENQHK | soluble
MGSDKIHHHHHHMVTEIELKYSLLDSNEQTKPEKIKTTISQLLSEHDVTFVHQEKQLSNHYFDTADLTLRKNRIALRTRGTKCFDETKRFEQTIKTSGTIIAGLHQRPEYNVDIGDAKPIVSLFPDIIFQPNIDINLLQQQIVELFSTHFTRHTWLVSFEDAQIEIAFDCGEVACQNYVKKPRIYEIELEFVSGDSQALLGLTKLLFSQLALRPGQLTKAARGYALYHESLTLASHVENKPPNNSAIVEQIELSMINLPKKIPLHNALTHGIEFSLNQLQLCVDSYVEVPSFNMLSKVSEQLILLRQGFWLFDELLSPDEKALRTELSYFIRTIHWVENARYIQLLINKQSSYQKENLINQELITKLQLRQSRYPRELQVLELLHSERFNNLQVDLLSLLLKRNSDETLKIDNSSSLVEFATKHLTNSTKALSDELVKLQKPQDSTSIELYLTAHSLLIRALLTTSWFSCLFAEPESDIVKRFNMPLLDIKQGIIELQSLSLLLQQLKHLPKKENKLTQWLTNKSENLITALDQSRAKALTMKPYWP | not soluble
PNRSISPSALQDLLRTLKSPSSPQQQQQVLNILKSNPQLMAAFIKQRTAKYVANQPGMQ | soluble
MITVVIADRLGKGQNVAKGVEQAGGRAVVVPGMGADMRLGDVMQQEKADLGISFCGSGGAGALTAATKYGYPERHGMRSIEEGVTAINDGKTVLGFGFMDQEELGKRVTEAFIKKHGA | not soluble
MDYILGRYVKIARYGSGGLVGGGGKEQYVENLVLWENIIKTAYCFITPSSYTAALETANIPEKDFSNCFRFLKENFFIIPGEYNNSTENNRYSRNFLHYQSYGANPVLVQDKLKNAKVVILGCGGIGNHVSVILATSGIGEIILIDNDQIENTNLTRQVLFSEDDVGKNKTEVIKRELLKRNSEISVSEIALNINDYTDLHKVPEADIWVVSADHPFNLINWVNKYCVRANQPYINAGYVNDIAVFGPLYVPGKTGCYECQKVVADLYGSEKENIDHKIKLINSRFKPATFAPVNNVAAALCAADVIKFIGKYSEPLSLNKRIGIWSDEIKIHSQNMGRSPVCSVCGNRMLEHHHHHH | soluble
MSYERRKTREVSVGTVKIGGENPISIQSMTNTDTRDADATIAQIKRLEEAGCDIVRVAVPDIKAAKNIAKIKSSVNIPIIADIHFDYKLALEAIKQGVDGIRINPGNIGSIERVKMVVEKCKERNLKIRIGVNGGSLEKELLKKYGSATAEALVESAMGHIKILEDLDFHNIVISLKSSDIYKTVDAYELISKKVDYPLHIGITESGSVHKGTIKSSIGVGALLLKGIGDTVRISLTGDPVEEVIVGKQILRSLGLLNDKIKVISCPTCGRCNIDLISVVNEVEEKIGSMEKNITVAIMGCAVNGPGEAREADIGIAGGKGEGLLFKKGEIVRMIDGNKLVDELLEEIEKL | not soluble
MSRTYLELSQDDGSAHKFYEVTVQGQVVTVRYGRIGAAGQTQTSTFPTAQKAEAAAAKKIGEKVRKGYEAAVQGQRAPRAVSRRQVASAPSTARAVAPVLWRFRTGSAAFGIHIDEDRCWVGNQAGDVYTLAHGGEVLARYQLPDGVKCLVADDFWIYAGCDDGRVYDLSSKLPFAAYDIAADVDIFWLDIHEGVLNVADRAGRLTVIDHEDEHQWSRGGRGEHAWMVRADDRAVYHGHTRGVTAHSPDGGVELWHTPTQGAVLFGWQEDDAVYAGTARHTVQRLSKATGGIEATYHCDSPVYSCATSPGGRFVFAGDSASSVYCFDRDGTRLWKLGTGGGSALSMQYRDERLFLVTTDGSLVCVDASEAAVTAAQQGSVPVVRDVKLAATLPTYAPATAATAVTTVTVAPAGSVVVECVQENGRTRIHVVTEGYDRSWNVQFPRAIREPGARYVVDALHAASGGFYRVRGDIRRLRLEHHHHHH | not soluble
MASWTLVDASAIAVRHPYTFYKPDAETIDRVAAGESVKLIFAFDTDNPDAPRAERLWVTVEGIEADGAFSGRLDNYPQYIRDLSLGERIVFEARHIINTEHDPRETPISRYARRCFVTRRVIDEGKAVGYLYREAPEEENDSGWRLMAGDESDDYMNTAGTTAYVSLGSVLNADDSILPLLDAPPGRAFERLADGSFIEVQGPEG | not soluble
MFRRARPLRKTTRINGLERNGLKRSGRGWNAPGADVLARHCPLLPGRADAIGRGRLIVATWPKSAAKQRQNVPPARSRTRWRSMSSCHRSGPQKRGRDSGAVTAVTGAPNGQATAFVSLNDEVDAVAAAANLWVRAKSPLHGHAEHLRCEARLATFGARRQRQRVRGRARPECPRRRRSAMADMPPSAP | not soluble
GPGSMITEGAATPCAEVPAIRRVRRTRSRFERLVRPEDVAPGEPTPSVEGWVLFLTNLPPNTTMDHITDLFVTREGEGLWNVREVKMPLDKNCECCGYALVELEKREAFEAALRDMEGMTLSFAEGEPPNGEDAWRLHIAPTFLGEKDDEEEELVAGGKRERE | soluble
